Laboratory results: publication PMC5663480, “Structural inhibition of dynamin-mediated membrane fission by endophilin” (eLife, 2017)

Target: the molecule itself
Experiment: cryo-EM structure; 2D class averages of endophilin-only coat on lipid tubules: 11 µM protein, DOPS liposomes (0.5 g/l), GTPase buffer, 30 min room temperature

B1: Rat endophilinA1 (natural protein, UniProt O35179 1-352, looked up)
chain: MSVAGLKKQFHKATQKVSEKVGGAEGTKLDDDFKEMERKVDVTSRAVMEIMTKTIEYLQPNPASRAKLSMINTMSKIRGQEKGPGYPQAEALLAEAMLKFGRELGDDCNFGPALGEVGEAMRELSEVKDSLDMEVKQNFIDPLQNLHDKDLREIQHHLKKLEGRRLDFDYKKKRQGKIPDEELRQALEKFDESKEIAESSMFNLLEMDIEQVSQLSALVQAQLEYHKQAVQILQQVTVRLEERIRQASSQPRREYQPKPRMSLEFATGDGTQPNGGLSHTGTPKPAGVQMDQPCCRALYDFEPENEGELGFKEGDIITLTNQIDENWYEGMLHGQSGFFPINYVEILVALPH
notes: Rat endophilinA1, wild type and full-length; source: E. coli, pGEX-6P vector, purified (glutathione Sepharose, PreScission cleavage)
binding result: binds
